System: retinal ganglion cells (RGCs)
Test: RGC loss after intraocular injection of α2 macroglobulin protein in normal eyes
Type: in vivo, rat
Method: RGCs were labeled with 3% DII (1,1-dioctadecyl-3,3,3,3-tetramethylindocarbocyanine perchlorate) or with 3% fluorogold. Briefly, Wistar rats were anesthetized and their heads were mounted in a stereotactic apparatus.
7 days after dye injection, the vasculature of the rats were perfused-fixed (transcardiac perfusion in phosphate-buffer (PB), followed by 4% PFA in PB) and the eyes were enucleated. After post-fixing for 1 hour cuts were made through the sclera to form a Maltese cross pattern and retinas detached from the eyecup at the optic nerve head. The retinas were flat-mounted on glass slides (vitreous side up) air-dried and cover-slipped with mounting medium (Molecular Probes). The retinas were observed under fluorescence microscopy (Zeiss). […] RGCs were recognized in flat mounted retinas by the presence of retrogradely transported dye and by morphology. RGCs in all 4 quadrants (16 images per retina) were averaged and presented as […] of area counted.
To evaluate the potential role of α2 macroglobulin in the death of RGCs, α2 macrobglobulin protein was microinjected in normal eyes to determine whether glaucoma-like RGC death ensued. In this paradigm, a total of 1-2 μg of α2 macroglobulin were delivered by a single intraocular injection in normal eyes, and surviving RGCs were counted at days 14 or 28 post-injection, by retrograde labeling. […]

B1: α2m: α2 macroglobulin protein injected intraocularly into normal rat eyes (protein, UniProt P06238 28-1472, looked up)
Alpha-2-macroglobulin: SAPQKPIYMVMVPSLLHAGTPEKACFLFSHLNETVAVRVSLESVRGNQSLFTDLVVDKDLFHCTSFTVPQSSSDEVMFFTVQVKGATHEFRRRSTVLVKKKESLVFAQTDKPIYKPGQTVRFRVVSLDESFHPLNELIPLLYIQDPKNNRIAQWQNFNLEGGLKQLSFPLSSEPTQGSYKVVIRTESGRTVEHPFSVEEFVLPKFEVRVTVPETITILEEEMNVSVCGIYTYGKPVPGRVTVNICRKYSNPSNCFGEESVAFCEKLSQQLDGRGCFSQLVKTKSFQLKRQEYEMQLDVHAKIQEEGTGVEETGKGLTKITRTITKLSFVNVDSHFRQGIPFVGQVLLVDGRGTPIPYETIFIGADEANLYINTTTDKHGLARFSINTDDIMGTSLTVRAKYKDSNACYGFRWLTEENVEAWHTAYAVFSPSRSFLHLESLPDKLRCDQTLEVQAHYILNGEAMQELKELVFYYLMMAKGGIVRAGTHVLPLKQGQMRGHFSILISMETDLAPVARLVLYAILPNGEVVGDTAKYEIENCLANKVDLVFRPNSGLPATRALLSVMASPQSLCGLRAVDQSVLLMKPETELSASLIYDLLPVKDLTGFPQGADQREEDTNGCVKQNDTYINGILYSPVQNTNEEDMYGFLKDMGLKVFTNSNIRKPKVCERLRDNKGIPAAYHLVSQSHMDAFLESSESPTETRRSYFPETWIWDLVVVDSAGVAEVEVTVPDTITEWKAGAFCLSNDTGLGLSPVVQFQAFQPFFVELTMPYSVIRGEAFTLKATVLNYLPTCIRVAVQLEASPDFLAAPEEKEQRSHCICMNQRHTASWAVIPKSLGNVNFTVSAEALNSKELCGNEVPVVPEQGKKDTIIKSLLVEPEGLENEVTFNSLLCPMGAEVSELIALKLPSDVVEESARASVTVLGDILGSAMQNTQDLLKMPYGCGEQNMVLFAPNIYVLDYLNETQQLTQEIKTKAIAYLNTGYQRQLNYKHRDGSYSTFGDKPGRNHANTWLTAFVLKSFAQARKYIFIDEVHITQALLWLSQQQKDNGCFRSSGSLLNNAMKGGVEDEVTLSAYITIALLEMSLPVTHPVVRNALFCLDTAWKSARGGAGGSHVYTKALLAYAFALAGNQDTKKEILKSLDEEAVKEEDSVHWTRPQKPSVSVALWYQPQAPSAEVEMTAYVLLAYLTTEPAPTQEDLTAAMLIVKWLTKQQNSHGGFSSTQDTVVALHALSKYGSATFTRAKKAAQVTIHSSGTFSTKFQVNNNNQLLLQRVTLPTVPGDYTVKVTGEGCVYLQTSLKYSVLPREEEFPFTVVVQTLPGTCEDPKAHTSFQISLNISYTGSRSESNMAIADVKMVSGFIPLKPTVKMLERSVHVSRTEVSNNHVLIYLDKVSNQTVNLSFTVQQDIPIRDLKPAVVKVYDYYEKDEFAVAKYSAPCSTDYGNA
RGC losses compared to vehicle PBS (2 weeks after single intraocular injection of 1-2 μg in normal eyes): 11±3%
RGC losses compared to vehicle PBS (4 weeks after single intraocular injection of 1-2 μg in normal eyes): 28±11%

Reference: patent US8563520B2, “Treatment of ocular disease with inhibitors of alpha2 macroglobulin protein” (McGill University, priority 2005, dated 2013)
